Reference: patent publication US20210301025A1 (published 2021)
Values belong to the binder of their own block, whether it stands above or below them.

Assays:
[1] = biological target: EGFR (form used in the assay not stated) (human, UniProt P00533 25-645, limits assumed); test: affinity quoted in text, assay not stated
[2] = biological target: T1, recombinant c-Met extracellular domain (human, UniProt P08581 16-932); test: SPR kinetic analysis as in Example 2
T1 construct: Construct used for SPR is not described further (may be the Fc chimera, as the protocol captures on anti-human Fc)

[3] = biological target: T2, human c-Met on cells (NCI-H441, NCI-H292, U87-MG) (human, UniProt P08581 25-1390); test: cell-based or functional assay
[4] = biological target: T3, Recombinant human c-Met Fc chimera (human, UniProt P08581 16-932); test: competition with biotinylated HGF on plate-coated c-Met-Fc
T3 construct: whole c-Met entry named; also called c-Met-Fc fusion protein

[5] = biological target: T2, human c-Met on cells (NCI-H441, …); test: NCI-H441 cell binding, anti-His fluorescence
Procedure: Purified FN3 domains (50 μL/well; 0 to 1000 nM) were added to the cells for 1 hour at 4° C. in duplicate plates. Supernatant was removed and cells were washed three times with FACS stain buffer (150 μL/well, BD Biosciences, cat #554657). Cells were incubated with biotinylated-anti HIS antibody (diluted 1:160 in FACS stain buffer, 50 μL/well, R&D Systems, cat # BAM050) for 30 minutes at 4° C. Cells were washed three times with FACS stain buffer (150 μL/well), after which wells were incubated with anti mouse IgG1-Alexa 488 conjugated antibody (diluted 1:80 in FACS stain buffer, 50 μL/well, Life Technologies, cat # A21121) for 30 minutes at 4° C. Cells were washed three times with FACS stain buffer (150 μL/well) and left in FACS stain buffer (50 μL/well). Total fluorescence was determined using an Acumen eX3 reader. Data were plotted as raw fluorescence signal against the logarithm of the FN3 domain molar concentration and fitted to a sigmoidal dose-response curve with variable slope using GraphPad Prism 4 (GraphPad Software) to calculate EC₅₀ values.

[6] = biological target: T2, human c-Met on cells (NCI-H441, …); test: cell-based or functional assay; remark: listed apart in the source

- Kd [1]: 1.9 nM
B1: P53A1R5-17v2 (designed binder)
chain: LPAPKNLVVSEVTEDSARLSWADPHGFYDSFLIQYQESEKVGEAIVLTVPGSERSYDLTGLKPGTEYTVSIYGVHNVYKDTNMRGLPLSAIFTT

- Kd [2]: 10.1 nM
- IC50 of inhibition of c-Met phosphorylation, NCI-H292 cells [3]: 610 nM
- IC50 [4]: 5.2 nM
- EC50 [5]: 18.7 nM
- Inhibition of proliferation of U87-MG cells IC50 [6]: 464 nM
- pMet inhibition in H441 cells IC50 [6]: 1.08 µM
B2: P114AR5P74-A5 (designed binder, not shown: small tags and cut ends)
chain: LPAPKNLVVSRVTEDSARLSWTAPDAAFDSFWIRYDEVVVGGEAIVLTVPGSERSYDLTGLKPGTEYYVNILGVKGGSISVPLSAIFTT
